B1: cap41 dsDNA (dsDNA)
DNA 1: GAGTATAATTATTTTTAATTTACATATAAATAAAAAGGCGAAAATAATGCGGTTTAAAAGTAATTAAT
DNA 2: ATTAATTACTTTTAAACCGCATTATTTTCGCCTTTTTATTTATATGTAAATTAAAAATAATTATACTC

Assays:
[1] = target: T1, SpoVG-6-His (Listeria monocytogenes 10403S) (UniProt Q8YAD5); test: EMSA; settings: 2x buffer: 40 mM Tris-HCl pH 8.0, 2 mM MgCl2, 20% glycerol, 300 mM NaCl, 5 mM DTT, plus 5 ug yeast tRNA, 1 ug BSA, 100 ng poly(dI-dC) …
T1 sequence: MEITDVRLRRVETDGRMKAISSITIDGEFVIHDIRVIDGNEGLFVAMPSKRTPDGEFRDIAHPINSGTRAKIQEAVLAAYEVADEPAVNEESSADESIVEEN

[2] = target: T1, SpoVG-6-His (Listeria monocytogenes 10403S); test: competition; settings: EMSA, 2x buffer: 40 mM Tris-HCl pH 8.0, 2 mM MgCl2, 20% glycerol, 300 mM NaCl, 5 mM DTT; plus 5 ug yeast tRNA, 1 ug BSA, 100 ng poly(dI-dC) …
[3] = target: T2, SpoVG-6-His (Listeria monocytogenes 10403S, UniProt Q8YAD5 1-102); test: EMSA; no significant binding to dsDNA; EMSA, 2x buffer: 40 mM Tris-HCl pH 8.0, 2 mM MgCl2, 20% glycerol, 300 mM NaCl, 5 mM DTT; plus 5 ug yeast tRNA, 1 ug BSA, 100 ng poly(dI-dC); 25-30 ul, room temperature 30 min, 5% native PAGE; settings: protein: recombinant; tags: C-terminal 6xHis; label: 32P; blunt
T2 sequence: T1 sequence

[4] = target: T2, SpoVG-6-His; test: EMSA; EMSA, 2x buffer: 40 mM Tris-HCl pH 8.0, 2 mM MgCl2, 20% glycerol, 300 mM NaCl, 5 mM DTT; plus 5 ug yeast tRNA, 1 ug BSA, 100 ng poly(dI-dC); 25-30 ul, room temperature 30 min, 5% native PAGE; settings: protein: recombinant; tags: C-terminal 6xHis; label: 32P

Molecule	binding [1]	Kd [1] [nM]	further results
GGGAAAAGAAACCCUAAUGUAUUCGAUAUAGUUCCUGAUAUUUUUGAACCGAACAAUUUUUUAUACCUAGGGAGCUUGGAGUUCCGGCGCGGCGCACAUGCCUUCACACGAGGAAGUGCAAACCGUUAGACAGAGCACCCACCUGCUUUAAUUGAGAGCGGGUUCAAAGGAAGGGAAUCCUAAACGGUACGAUUGGGGUUUCUUUUUUG [6S RNA]	no binding		
GGGCAGUGGAAUUAAAGGCAUCUAAGCAAAUCAUGAUGAACGAGAGAACCGUUUGAAGAUCAUCCGAAUGACGUAUAUGUUCUACCUUGAUCUGUUCAGCCGCAAUGCUUUUGCGAGUGACA [Rli109]		129	binding [2]: binds
GGGUGGAGAGCUUUCAUUUUUCCCAAGAGAAAGCAAAUAAUGUUAGAGCAAUAAUUCUAGUAUCCGAAUUAGUCUUAUCCCUUGGCUCGCUUUAAUAUUAUUUCUCCCUAAUACUCCCUUAACCGCAUCCCCCUGGUGCGGUUAUUUUUUUG [Rli32]		273	
GGUAUCCCAUAGAGAUUGUCAGGGGAAAUAAGCUAAUUGAAAAUAAAUUACUUCCCCCAUAGAAAUAUUCUUAAUUGCUUAUUUCAAAUAAACACUCCUUUAAGAUAGUUGUAGCACAGAAUUUCCCAGAUUCUGUGCUAUAAUUA [Rli31 mutant A]	binds		
GGUAUCCCAUAGAGAUUGUCAUUUGAAAUAAGCUAAUUGAAAAUAAAUUACUUCCCCCAUAGAAAUAUUCUUAAUUGCUUAUUUCAAAUAAACACUCCUUUAAGAUAGUUGUAGCACAGAAUUUCCCAGAUUCUGUGCUAUAAUUA [Rli31]		273	
GGUAUCCCAUAGAGAUUGUCAUUUGAAAUAAGCUAAUUGAAAAUAAAUUACUUUUUCCAUAGAAAUAUUCUUAAUUGCUUAUUUCAAAUAAACACUCCUUUAAGAUAGUUGUAGCACAGAAUUUCCCAGAUUCUGUGCUAUAAUUA [Rli31 mutant E]			binding signal [1]: binds more weakly
GGUGAGAUGACAUGUUUCUUUUGAAUGCGCGAACUAGUAUAGCUAAAUUUUUGUAUAUUGUCCGUGCAAUUUUUUCCGUUAUUGCAGUUACAUUGGCGAAGUCUGCCCAAAAAACUGUAUAACUAGAAAAAAUGAGAGAAGCAUGGAGUCACGCAAUCGAUUUGUAUAGUGCUAAAUUAGUAUUAUACUUAUAAUUGGCGUCGGGCGCUUGUCUGACGCUUUUUUGUUGUCUGAAAAAA [RliI]	binds more weakly		
GGUUGUCGUGCUAGACGGGGAGGUAGCGGCGCCCUGUAACCCGCAAUCCGCUCUAGCGGGGUUGAAUUCCUCAUUUGAGGCAUCGUAAUUGUUUGGUCUGCCCUUGACAAGUGGUGUUGAAGGUUGGGUCUUGCGCAAUGGGAACCUGUGAACCAUGUCAGGUCCGGAAGGAAGCAGCAUUAAGCAGUGCUUCUCAUGUGCCGCGAGGUCGCCUGGCCCGAGCUAACUAUCAGGGUAACGCAGAUGAUUGCAUGUCGAUGUGAGGUGCGCGACACUAA [SRP RNA]	no binding		
Rli31		273	
Rli32		273	
Rli109		129	
B1			binding result [3]: no binding
GTCGCGCAACAAAGTAATAATGCAGATGGACAGACTAATGAAAGACCAG (ssDNA) [pgdA ORF]			binding result [4]: binds

Reference: publication PMC4959528, “SpoVG Is a Conserved RNA-Binding Protein That Regulates Listeria monocytogenes Lysozyme Resistance, Virulence, and Swarming Motility”
